These results are taken from patent publication US8138151B2, “Peptides” (Faron Ventures Oy, priority 2006, dated 2012).

Entries after “also recorded” stand apart in the source; their conditions may differ.

In test [1] the target is T1, purified recombinant VAP-1 (Homo sapiens, UniProt Q16853).
T1 sequence (Q16853 1-763): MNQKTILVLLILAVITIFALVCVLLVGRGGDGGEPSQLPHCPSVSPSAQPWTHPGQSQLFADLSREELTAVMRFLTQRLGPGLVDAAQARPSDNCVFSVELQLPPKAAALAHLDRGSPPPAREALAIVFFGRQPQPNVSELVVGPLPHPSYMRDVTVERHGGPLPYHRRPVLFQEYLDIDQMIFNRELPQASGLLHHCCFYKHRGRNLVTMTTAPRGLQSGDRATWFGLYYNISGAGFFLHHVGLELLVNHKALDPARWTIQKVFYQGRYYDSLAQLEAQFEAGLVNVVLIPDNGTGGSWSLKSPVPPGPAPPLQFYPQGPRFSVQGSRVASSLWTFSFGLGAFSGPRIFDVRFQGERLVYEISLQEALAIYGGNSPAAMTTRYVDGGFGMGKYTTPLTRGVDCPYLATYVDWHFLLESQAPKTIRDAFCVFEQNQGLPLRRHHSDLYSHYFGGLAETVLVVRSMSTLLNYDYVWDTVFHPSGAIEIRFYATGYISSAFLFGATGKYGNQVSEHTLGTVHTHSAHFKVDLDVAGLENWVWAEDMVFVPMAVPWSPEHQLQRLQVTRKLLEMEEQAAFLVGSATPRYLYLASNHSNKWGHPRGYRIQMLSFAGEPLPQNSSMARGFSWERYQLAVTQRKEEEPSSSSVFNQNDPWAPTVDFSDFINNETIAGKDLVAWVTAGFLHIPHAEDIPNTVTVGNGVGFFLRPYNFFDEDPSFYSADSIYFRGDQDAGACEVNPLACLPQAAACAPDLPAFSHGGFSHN
In words: ELISA binding of biotinylated synthetic peptides to immobilized VAP-1. The settings on record: wells coated with VAP-1, BSA as negative control; streptavidin-HRP chemiluminescence detection. On the procedure:
Binding of peptides to VAP-1. VAP-1 and BSA as a negative control were immobilized in wells of Nunc Maxisorp 96-well ELISA plate overnight at 4° C., blocked with PBS/3% BSA for 1 h at 37° C. and incubated with biotinylated peptides (10 micrograms/ml or 100 micrograms/ml) for 2 h at room temperature. The wells were washed with PBS/0.1% Tween, incubated with HRP conjugated streptavidin for 1 h at room temperature and after washing a BM chemiluminescence ELISA substrate was added. Luminescence was measured with a luminometer (Tecan Ultra, Tecan, Zürich, Switzerland).

For test [2], the target named is T2, VAP-1 expressed on the cell surface (CHO-VAP-1 cells) (Homo sapiens, UniProt Q16853).
T2 construct: expressed in transfected cells; host or cells: CHO cells (CHO-VAP-1)
T2 sequence (Q16853 1-763): T1 sequence (Q16853 1-763)
In words: Epitope analysis: competitive surface staining of CHO-VAP-1 cells with anti-VAP-1 mAb, flow cytometry. In kind it is cell-based. The conditions noted are these: cells expressing VAP-1 first incubated with 10 micrograms/ml protein, then anti-VAP-1 (JG2.10). On the procedure: Surface stainings of CHO-VAP-1 and CHO-mock cells were performed using anti-VAP-1 (JG2.10) and a negative control (9B5) mAbs. Competitive stainings were done in the presence of 10 micrograms/ml either human Ig or Siglec-10-Ig. Alexa546-conjugated goat anti-rat IgG was used as the secondary reagent. All cells were analyzed using FACSCalibur and Cellquest software.

For a further test, the target named is T3, recombinant VAP-1 (Homo sapiens, UniProt Q16853).
T3 sequence (Q16853 1-763): T1 sequence (Q16853 1-763)
Briefly: ELISA binding of Siglec-10-Ig-chimera to recombinant VAP-1. The conditions noted are these: chimera immobilized via anti-human IgG; VAP-1 detected with biotinylated TK-8-18. The procedure:
Siglec 10-Fc chimera binding to VAP-1. Anti-human IgG (Fc specific) antibody was coated onto Nunc Maxisorp wells overnight at 4° C. After blocking with PBS/2% BSA, Siglec-10-Ig-chimera (1 microgram/ml) was immobilized to wells via its Fc-tail for 2 h at room temperature and thereafter, recombinant VAP-1 ([…] incubated in wells for 2 h at room temperature. After washing the wells with PBS/0.1% Tween, biotinylated anti-human VAP-1 antibody (TK-8-18) was incubated in the wells for 1 h at room temperature and after that, the wells were incubated with HRP conjugated streptavidin for 1 h at room temperature. After washing the wells, a BM chemiluminescence ELISA substrate was added to the wells and luminescence was measured with Tecan luminometer.
A general note: ELISA stands for enzyme-linked immunosorbent assay.

For test [3], the target named is T4, VAP-1 (SSAO enzymatic activity) (Homo sapiens, UniProt Q16853).
T4 construct: expressed in transfected cells; host or cells: CHO cells (CHO-VAP-1)
T4 sequence (Q16853 1-763): T1 sequence (Q16853 1-763)
Briefly: Isotopic enzyme assay of SSAO activity of VAP-1 (14C-benzylamine, CHO-VAP-1 cell lysate). Type of test: biochemical. The settings on record: 30 min preincubation with CHO-VAP-1 lysate. On the procedure:
Semicarbazide sensitive mine oxidase (SSAO) enzymatic activity of VAP-1 after interaction with Siglec-10 was determined radiochemically. Briefly, 14-C labeled benzylamine (a model substrate for SSAO) was used as the substrate. The assay was performed at 37° C. for 120 minutes in a final volume of 400 microliters 0.1 mM Krebs-Ringer phosphate glucose buffer (pH 7.35) containing CHO-VAP-1 cell lysate and 5 microM benzylamine with tracer ^14C benzylamine (40 000 dpm) in the presence of 1 mM clorgyline (a MAO inhibitor). In the inhibitory studies, the lysate was preincubated 30 minutes with 10 micrograms/ml or 70 micrograms/ml Siglec-10-Ig-chimera or 1 mM semicarbazide before adding the benzylamine. Catalytic reaction was stopped with citric acid, and the aldehyde reaction products were extracted from the analyzed mixture into toluene containing 0.35 g/L diphenyloxazole. The amount of 14C-labeled benzaldehyde was quantified by scintillation counting using a beta-counter Wallac-1409 (Turku, Finland), and the activity of the enzyme was expressed as picomoles of benzaldehyde formed by milliliter of lysate per hour.

For the substance “CATLSWVLQNRVLSSC (listed as Homo sapiens) [P3, longer peptide matching Siglec-10 residues 284-297, cysteines added to both ends]”, in test [1], the “Binding of biotinylated synthetic peptide to VAP-1 (ELISA)” value is recorded as “bound specifically to wells coated with purified VAP-1 in comparison to BSA”.
Still for that read-out and setting: under “CWSFRNRVLC (Phage display library peptide) [peptide P2]” stands “shown to bind to VAP-1; also recorded: efficiently bound to purified recombinant VAP-1”; under “CVKWRGVVVC (Phage display library peptide) [peptide P1]”, “shown to bind to VAP-1; also recorded: efficiently bound to purified recombinant VAP-1”; under “CARLSLSWRGLTLCPS (listed as Homo sapiens) [P5]”, “bound specifically to wells coated with purified VAP-1 in comparison to BSA”.
Turning to “Siglec-10-Ig-chimera: Siglec-10 fused to an Ig Fc-tail, counter-receptor for VAP-1”, in test [2], the “Cells positive for anti-VAP-1 antibody staining” value is on record as 43.7%. Moreover, the “Interaction of Siglec-10-Ig-chimera with purified VAP-1 (ELISA)” value with recombinant VAP-1 is on record as “interacts with VAP-1”. Moreover, the entries for the “Inhibition of SSAO activity of VAP-1” value in test [3] (10 μg/ml (~7 nM)) and in test [3] (70 μg/ml (~50 nM)) were 20% and 30%, respectively.
